Experimental data published in the Immune Epitope Database (IEDB).

Columns and labels:
Experiment in all cases: IEDB peptide-MHC binding, purified MHC/competitive/radioactivity; filed as Kd, often an IC50 or EC50 that approximates it; ≥ and ≤ were set here for values at or beyond the usual limits of such assays
HLA-A*33:01 = target: HLA-A*33:01
HLA-A*03:01 = target: HLA-A*03:01
HLA-A*31:01 = target: HLA-A*31:01
HLA-A*68:01 = target: HLA-A*68:01
HLA-A*11:01 = target: HLA-A*11:01
[1] = source organism: Vaccinia virus WR
[2] = source organism: Dengue virus 1 Brazil/97-11/1997
[3] = source organism: Dengue virus 3 Martinique/1243/1999
[4] = source organism: Mammarenavirus guanaritoense
[5] = source organism: SARS coronavirus Tor2
[6] = source organism: Dengue virus 2 Jamaica/1409/1983
[7] = source organism: Dengue virus 4 Philippines/H241/1956
[8] = source organism: Dengue virus 1 Singapore/S275/1990

Row | Sequence | Kd (HLA-A*33:01; [1]) | Kd (HLA-A*03:01; [1]) | Kd (HLA-A*31:01; [1]) | Kd (HLA-A*68:01; [1]) | Kd (HLA-A*11:01; [1]) | other results
1 | WIKDIMTSTR | 64 nM | 2200 nM | 301 nM | 22.7 nM | ≥ 21200 nM | –
2 | EVHTWTEQYK | – | – | – | – | – | Kd (HLA-A*68:01; [2]): 15.2 nM
3 | ISSVLTILYY | 1430 nM | 561 nM | 5890 nM | 162 nM | 155 nM | –
4 | ETLNEYKQLY | 541 nM | 15100 nM | ≥ 41300 nM | 331 nM | 12400 nM | –
5 | DVIGERIKR | – | – | – | – | – | Kd (HLA-A*33:01; [3]): 38.7 nM; Kd (HLA-A*68:01; [3]): 24.7 nM
6 | KGLGHDFLR | – | – | – | – | – | Kd (HLA-A*33:01; [4]): ≥ 77700 nM; Kd (HLA-A*31:01; [4]): 0.134 nM; Kd (HLA-A*68:01; [4]): ≥ 21600 nM
7 | CYLDTNIKM | 10900 nM | ≥ 38600 nM | 285 nM | ≥ 25800 nM | ≥ 77900 nM | –
8 | FIKYVNGWVK | 111 nM | 1.76 nM | 115 nM | 1.13 nM | 1.56 nM | –
9 | RLLHCVTESY | 6940 nM | 72.7 nM | 31.3 nM | 598 nM | 40.2 nM | –
10 | LSSKGLACY | ≥ 77700 nM | 777 nM | 13300 nM | 8340 nM | 5490 nM | –
11 | TQSRDLEDFK | – | – | – | – | – | Kd (HLA-A*33:01; [5]): ≥ 70000 nM; Kd (HLA-A*03:01; [5]): 19300 nM; Kd (HLA-A*31:01; [5]): 14600 nM; Kd (HLA-A*68:01; [5]): ≥ 29000 nM; Kd (HLA-A*11:01; [5]): 12500 nM
12 | VSTVQQLTK | – | – | – | – | – | Kd (HLA-A*11:01; [6]): 604 nM
13 | VIILAALFMY | ≥ 70000 nM | 2660 nM | ≥ 70000 nM | ≥ 51800 nM | 449 nM | –
14 | KISVQYNLSH | – | – | – | – | – | Kd (HLA-A*11:01; source organism: Lassa virus Josiah): 203 nM
15 | ALALGMMVLK | – | – | – | – | – | Kd (HLA-A*03:01; [6]): 24 nM; Kd (HLA-A*11:01; [6]): 13.7 nM
16 | KTKISVEKIK | ≥ 70000 nM | 4200 nM | 818 nM | ≥ 24700 nM | 275 nM | –
17 | FLELKRGIY | 4540 nM | ≥ 78000 nM | 2200 nM | 1880 nM | 10700 nM | –
18 | VLLGSFGCK | – | – | – | – | – | Kd (HLA-A*03:01; [2]): 11.9 nM
19 | KTVWFVPSIK | – | – | – | – | – | Kd (HLA-A*03:01; [6]): 6.64 nM; Kd (HLA-A*11:01; [6]): 59.2 nM
20 | TLITGNMSFR | – | – | – | – | – | Kd (HLA-A*33:01; [6]): 289 nM; Kd (HLA-A*68:01; [6]): 12.3 nM
21 | MFAVGLLFR | – | – | – | – | – | Kd (HLA-A*33:01; [2]): 1.05 nM; Kd (HLA-A*31:01; [2]): ≥ 66700 nM; Kd (HLA-A*68:01; [2]): 61.9 nM
22 | RTLGRNKRPR | – | – | – | – | – | Kd (HLA-A*31:01; source organism: Dengue virus 3 Sri Lanka/1266/2000): 6.81 nM
23 | NKKPRICTR | – | – | – | – | – | Kd (HLA-A*33:01; [2]): 2970 nM
24 | RVSTGSQLAK | – | – | – | – | – | Kd (HLA-A*03:01; [2]): 75.5 nM; Kd (HLA-A*11:01; [2]): 75.7 nM
25 | SMLNIMNRR | – | – | – | – | – | Kd (HLA-A*33:01; [2]): 68.3 nM; Kd (HLA-A*31:01; [2]): 1.54 nM
26 | KFQPESPAR | – | – | – | – | – | Kd (HLA-A*31:01; [7]): 64.2 nM
27 | LAMGIMILK | – | – | – | – | – | Kd (HLA-A*03:01; [8]): 26.3 nM; Kd (HLA-A*68:01; [8]): 30.6 nM; Kd (HLA-A*11:01; [8]): 9.52 nM
28 | QTVGPWHLGK | – | – | – | – | – | Kd (HLA-A*11:01; [7]): 37.8 nM
